Results on 54 variants are retold here after the RNAGym collection of RNA variant scans (doi:10.7554/elife.80360).

Sequences and labels used below:
B1: Twister Ribozyme (parent)
chain: AACACUGCCAAUGCCGGUCCCAAGCCCGGAUAAAAGUGGAGGGGGCGG

The data set covers variants of B1. Put plainly: self-cleavage, relative activity (ratio to wild type); higher = more cleavage; co-transcriptional.
For the variant AACACUGCCAAUGCCCGUCCCAAGCCCGGAGAAAAGUGGAGGGGGCGG [G16C U31G], the self-cleavage came to 0.663.

On to AACACUACCAAUGCCGGUCCCAAGCCCGCAUAAAAGUGGAGGGGGCGG [G7A G29C], for which the self-cleavage amounted to 0.12.

For AACACUGCCAAUGCCGGUCCCAAGCCCGGAUAAAUGUGAAGGGGGCGG [A35U G39A], the self-cleavage came out at 0.316.

Take AACACUGCCAAUGCCGGUCCCAUGCCCGGAUCAAAGUGGAGGGGGCGG [A23U A32C]: the self-cleavage is 0.464.

Regarding AACACUGCCAAUGCCGGUACCAAGCCCGGAUAAACGUGGAGGGGGCGG [C19A A35C], the self-cleavage turned out to be 0.313.

For the variant AACACUGCCAAUGACGGUCCCUAGCCCGGAUAAAAGUGGAGGGGGCGG [C14A A22U], the self-cleavage was 0.657.

AGCACUGCCAAUGCCGGUCCCAAGCCCGGAUGAAAGUGGAGGGGGCGG [A2G A32G]: the self-cleavage was determined as 0.317.

Consider AACACUGCCAAUGCCGGUCCCAAGGCCGGAUAAAAGUGGAGGGCGCGG [C25G G44C], for which the self-cleavage worked out at 0.248.

As to AACACUGCCAAUGCCGGCCCCAAGCCCGGAUAAAAGUGCAGGGGGCGG [U18C G39C], the self-cleavage worked out at 0.108.

For the variant AACACUGUCAAUGCCGGUCUCAAGCCCGGAUAAAAGUGGAGGGGGCGG [C8U C20U], the self-cleavage was determined as 0.308.

As for AACACUGCCAAUGCCGGUCACAAGGCCGGAUAAAAGUGGAGGGGGCGG [C20A C25G], the self-cleavage was determined as 0.0839.

As for CACACUGCCAAUGCCGGUCCCAAGCCCGGAUAAAAGUGGAGGGGGUGG [A1C C46U], the self-cleavage was 0.18.

Take AACACUGCCAGUGCCGGUCCCAACCCCGGAUAAAAGUGGAGGGGGCGG [A11G G24C]: the self-cleavage was 0.0551.

As for AACACUGCCAAUGCCGGUCCCAAGCCCGGCUAAAGGUGGAGGGGGCGG [A30C A35G], the self-cleavage came to 0.38.

Consider AACCCUACCAAUGCCGGUCCCAAGCCCGGAUAAAAGUGGAGGGGGCGG [A4C G7A], for which the self-cleavage stood at 0.0506.

For the variant AACACUGCCAAUGCCGGUCCUAAGCCCGGAUAACAGUGGAGGGGGCGG [C21U A34C], the self-cleavage was found to be 0.0844.

Regarding AACGCUGCCAAUCCCGGUCCCAAGCCCGGAUAAAAGUGGAGGGGGCGG [A4G G13C], the self-cleavage was found to be 0.244.

Turning to ACCACUGCCAAUGCCGGUCCCAAGCCCGGGUAAAAGUGGAGGGGGCGG [A2C A30G], the self-cleavage amounted to 0.105.

Consider AACACUGCCAAUGCCGGUCCCAAGCCCGGAUAAAAGUGUAGGGGUCGG [G39U G45U], for which the self-cleavage stood at 0.141.

Regarding AACACUGCUAAUGCCGGUCCCAAGCCCGGAUAAAAAUGGAGGGGGCGG [C9U G36A], the self-cleavage is 0.281.

Take AACACUGCCACUGCCGGUCCCAAGGCCGGAUAAAAGUGGAGGGGGCGG [A11C C25G]: the self-cleavage was 0.115.

As for AACACUGCCAAUGCCGGUCCCAAGCCCGGAUAAAAGUGGAGGGGGAGA [C46A G48A], the self-cleavage turned out to be 0.837.

For AACACUGCGAAGGCCGGUCCCAAGCCCGGAUAAAAGUGGAGGGGGCGG [C9G U12G], the self-cleavage was determined as 0.492.

With AACACUGCCAAUGCCGGUCUCAAGCCCGGAUAAAAGUGGAGGGGGUGG [C20U C46U], the self-cleavage was found to be 0.969.

AACACUGCCAAUGCCGGUCCCAAGCCCGGCUAAAAGUGGAGGGGGCGG [A30C]: the self-cleavage amounted to 0.911.

On to AACACUGCCAAUGCCGGUCCCAAGCCCGGAUAAAACUGGAGGGCGCGG [G36C G44C], for which the self-cleavage was 0.402.

For the variant AACACUGCCAAUGCCGGUCCCAAGCCCCGAUAAAAGUGGAGGGGACGG [G28C G45A], the self-cleavage was 0.552.

In the case of AACACUGCCAAUGCCGGUUCCAAGCCCGGAUAAAAGUGGACGGGGCGG [C19U G41C], the self-cleavage came out at 0.104.

AACACUGCCAAUGCAGGUCCCAAGCACGGAUAAAAGUGGAGGGGGCGG [C15A C26A]: the self-cleavage stood at 0.0686.

As for AACACUGACGAUGCCGGUCCCAAGCCCGGAUAAAAGUGGAGGGGGCGG [C8A A10G], the self-cleavage came out at 0.734.

On to AACACUGCCAAUGCGGGUCCCAAGCCCGGAUACAAGUGGAGGGGGCGG [C15G A33C], for which the self-cleavage amounted to 0.0859.

AACUCUGCCAAUGCCGGUCCCAAGCCCGGAUAAAAGUGGAGUGGGCGG [A4U G42U]: the self-cleavage came out at 0.0714.

Regarding AACACUGCCAAUGGCGGUCCCAAGCCCGGAUAAAAUUGGAGGGGGCGG [C14G G36U], the self-cleavage came out at 0.0782.

Consider AACACUGCCACUGCCGGUCCCAACCCCGGAUAAAAGUGGAGGGGGCGG [A11C G24C], for which the self-cleavage stood at 0.0648.

As for AACACUGCCAAUGCCGGUCCCAAGCCCGCAUGAAAGUGGAGGGGGCGG [G29C A32G], the self-cleavage amounted to 0.519.

In the case of AACACUGCCUAUGUCGGUCCCAAGCCCGGAUAAAAGUGGAGGGGGCGG [A10U C14U], the self-cleavage was 0.884.

AACACUGCCAAUGAUGGUCCCAAGCCCGGAUAAAAGUGGAGGGGGCGG [C14A C15U]: the self-cleavage was 0.746.

Consider AACACUACCAAUGCCGGUCCCAAGCGCGGAUAAAAGUGGAGGGGGCGG [G7A C26G], for which the self-cleavage was 0.0601.

Regarding AACACUGCCAAUGCCGGUCCCACGCCCGGAUAAAAGUGGAGGGAGCGG [A23C G44A], the self-cleavage stood at 0.478.

On to AACACUGCCAAUGCCGUUCCCAAGCCCGGAUAAAAGUCGAGGGGGCGG [G17U G38C], for which the self-cleavage is 0.203.

Take AACACUGCCAAUGCCGGUCCCAACCCCGGAUAAAAGUGGUGGGGGCGG [G24C A40U]: the self-cleavage came to 0.0978.

Consider AACACUGCCAAUGCCGAUCCCAAGCCGGGAUAAAAGUGGAGGGGGCGG [G17A C27G], for which the self-cleavage turned out to be 0.243.

In the case of AACACUGCCAAUGCCGGUCCCUAGCCUGGAUAAAAGUGGAGGGGGCGG [A22U C27U], the self-cleavage came to 0.692.

Regarding AACACUGCCAAUGCCGGUCCCGAGCCCGGAUAAAAGUGGAUGGGGCGG [A22G G41U], the self-cleavage was 0.119.

Turning to AACACUACCAAUGCCGGUCCCAAGCCCGGAUAAAAGUGGAGGGAGCGG [G7A G44A], the self-cleavage stood at 0.619.

As for AACACUGCCAAUUGCGGUCCCAAGCCCGGAUAAAAGUGGAGGGGGCGG [G13U C14G], the self-cleavage turned out to be 0.512.

As for AACGCUGCCAAUGCCGGUCCCAAGCCCGGAUAAAAGUGGAGGGGGCGA [A4G G48A], the self-cleavage came out at 0.955.

As to AACGCUGCCAAUGCCGGUCCCAAGCCCGGAUAAAAGUGGAGGGGGCGC [A4G G48C], the self-cleavage was found to be 1.18.

Take AACACUGCCAAUGUCGGUCCCCAGCCCGGAUAAAAGUGGAGGGGGCGG [C14U A22C]: the self-cleavage was 1.15.

For the variant AACACUGCCAAUGUCGGUCCCAAGCCCGGAUAAAAGUGGAGGCGGCGG [C14U G43C], the self-cleavage was 0.227.

AACACUUCCAAUGCCGGUCCCAAGCCCAGAUAAAAGUGGAGGGGGCGG [G7U G28A]: the self-cleavage is 0.0571.

As for AACACUGCCAAUGCCGGUCCCAAGCCCGGAUAAACUUGGAGGGGGCGG [A35C G36U], the self-cleavage is 0.477.

On to AACACUGCAAAUGCCGGUCCCAAGCCCGGAUAAAAGUGAAGGGGGCGG [C9A G39A], for which the self-cleavage stood at 0.167.

As for AACACUGCCAUUGACGGUCCCAAGCCCGGAUAAAAGUGGAGGGGGCGG [A11U C14A], the self-cleavage came out at 0.915.
